Laboratory results taken from article doi:10.1101/2021.03.24.436638.

Target: calnexin (simian (endogenous in COS7))
Test: co-IP

B1: GlyT2 A277T mutant (rat numbering; rat version of human A275T) (natural protein)
chain: MDCSAPKEMNKPPTNILEATVPGHRDSPRAPRTSPEQDLPAAAPAAAVQPPRVPRSASTGAQTFQSADARACEAQRPGVGFCKLSSPQAQATSAALRDLSEGHSAQANPPSGAAGAGNALHCKIPALRGPEEDENVSVGKGTLEHNNTPAVGWVNMSQSTVVLGTDGIASVLPGSVATTTIPEDEQGDENKARGNWSSKLDFILSMVGYAVGLGNVWRFPYLAFQNGGGAFLIPYLMMLALAGLPIFFLEVSLGQFASQGPVSVWKAIPALQGCGITMLIISVLIAIYYNVIICYTLFYLFASFVSVLPWGSCNNPWNTPECKDKTKLLLDSCVIGDHPKIQIKNSTFCMTAYPNLTMVNFTSQANKTFVSGSEEYFKYFVLKISAGIEYPGEIRWPLAFCLFLAWVIVYASLAKGIKTSGKVVYFTATFPYVVLVILLIRGVTLPGAGAGIWYFITPKWEKLTDATVWKDAATQIFFSLSAAWGGLITLSSYNKFHNNCYRDTLIVTCTNSATSIFAGFVIFSVIGFMANERKVNIENVADQGPGIAFVVYPEALTRLPLSPFWAIIFFLMLLTLGLDTMFATIETIVTSISDEFPKYLRTHKPVFTLGCCICFFIMGFPMITQGGIYMFQLVDTYAASYALVIIAIFELVGISYVYGLQRFCEDIEMMIGFQPNIFWKVCWAFVTPTILTFILCFSFYQWEPMTYGSYRYPNWSMVLGWLMLACSVIWIPIMFVIKMYLAPGRFIERLKLVCSPQPDWGPFLAQHRGERYKNMIDPLGTSSLGLKLPVKDLELGTQC
**Q.** With B1 as the binder, how does the amount coimmunoprecipitated with CNX, percent of wild-type GlyT2 read?
**A.** 289%

B2: GlyT2 Y707C mutant (rat numbering; rat version of human Y705C) (natural protein)
chain: MDCSAPKEMNKPPTNILEATVPGHRDSPRAPRTSPEQDLPAAAPAAAVQPPRVPRSASTGAQTFQSADARACEAQRPGVGFCKLSSPQAQATSAALRDLSEGHSAQANPPSGAAGAGNALHCKIPALRGPEEDENVSVGKGTLEHNNTPAVGWVNMSQSTVVLGTDGIASVLPGSVATTTIPEDEQGDENKARGNWSSKLDFILSMVGYAVGLGNVWRFPYLAFQNGGGAFLIPYLMMLALAGLPIFFLEVSLGQFASQGPVSVWKAIPALQGCGIAMLIISVLIAIYYNVIICYTLFYLFASFVSVLPWGSCNNPWNTPECKDKTKLLLDSCVIGDHPKIQIKNSTFCMTAYPNLTMVNFTSQANKTFVSGSEEYFKYFVLKISAGIEYPGEIRWPLAFCLFLAWVIVYASLAKGIKTSGKVVYFTATFPYVVLVILLIRGVTLPGAGAGIWYFITPKWEKLTDATVWKDAATQIFFSLSAAWGGLITLSSYNKFHNNCYRDTLIVTCTNSATSIFAGFVIFSVIGFMANERKVNIENVADQGPGIAFVVYPEALTRLPLSPFWAIIFFLMLLTLGLDTMFATIETIVTSISDEFPKYLRTHKPVFTLGCCICFFIMGFPMITQGGIYMFQLVDTYAASYALVIIAIFELVGISYVYGLQRFCEDIEMMIGFQPNIFWKVCWAFVTPTILTFILCFSFYQWEPMTCGSYRYPNWSMVLGWLMLACSVIWIPIMFVIKMYLAPGRFIERLKLVCSPQPDWGPFLAQHRGERYKNMIDPLGTSSLGLKLPVKDLELGTQC
**Q.** B2 was tested. Which amount coimmunoprecipitated with CNX, percent of wild-type GlyT2 did it give?
**A.** 188%
